In PMC13722417 (2026):
Where “and” joins values, the source holds several entries; their conditions need not be identical. Equal entries are not always repeated.

B1: TIE1 21-760 (protein)
chain: AAVDLTLLANLRLTDPQRFFLTCVSGEAGAGRGSDAWGPPLLLEKDDRIVRTPPGPPLRLARNGSHQVTLRGFSKPSDLVGVFSCVGGAGARRTRVIYVHNSPGAHLLPDKVTHTVNKGDTAVLSARVHKEKQTDVIWKSNGSYFYTLDWHEAQDGRFLLQLPNVQPPSSGIYSATYLEASPLGSAFFRLIVRGCGAGRWGPGCTKECPGCLHGGVCHDHDGECVCPPGFTGTRCEQACREGRFGQSCQEQCPGISGCRGLTFCLPDPYGCSCGSGWRGSQCQEACAPGHFGADCRLQCQCQNGGTCDRFSGCVCPSGWHGVHCEKSDRIPQILNMASELEFNLETMPRINCAAAGNPFPVRGSIELRKPDGTVLLSTKAIVEPEKTTAEFEVPRLVLADSGFWECRVSTSGGQDSRRFKVNVKVPPVPLAAPRLLTKQSRQLVVSPLVSFSGDGPISTVRLHYRPQDSTMDWSTIVVDPSENVTLMNLRPKTGYSVRVQLSRPGEGGEGAWGPPTLMTTDCPEPLLQPWLEGWHVEGTDRLRVSWSLPLVPGPLVGDGFLLRLWDGTRGQERRENVSSPQARTALLTGLTPGTHYQLDVQLYHCTLLGPASPPAHVLLPPSGPPAPRHLHAQALSDSEIQLTWKHPEALPGPISKYVVEVQVAGGAGDPLWIDVDRPEETSTIIRGLNASTRYLFRMRASIQGLGDWSNTVEESTLGNGLQAEGPVQESRAAEEGLDQQ

Tests used:
SVEP1 919-3571 [1] = biological target: SVEP1 919-3571 (Homo sapiens, UniProt Q4LDE5, ANG2 present); assay: ELISA
SVEP1 919-3571 [2] = biological target: SVEP1 919-3571 (Homo sapiens, UniProt Q4LDE5); assay: ELISA
SVEP1 919-3571 [3] = biological target: SVEP1 919-3571 (Homo sapiens, UniProt Q4LDE5, ANG1 present); assay: ELISA
TIE1 21-760 = biological target: B1; assay: SPR

Binder	Kd (SVEP1 919-3571 [1]) [nM]	Kd (SVEP1 919-3571 [2])	Kd (SVEP1 919-3571 [3]) [nM]	Kd (TIE1 21-760) [nM]
B1	55.6	189 nM and 147 nM	82.4	
SVEP1 2261-2890 (protein) PLDCGKPPPIQNGFMKGENFEVGSKVQFFCNEGYELVGDSSWTCQKSGKWNKKSNPKCMPAKCPEPPLLENQLVLKELTTEVGVVTFSCKEGHVLQGPSVLKCLPSQQWNDSFPVCKIVLCTPPPLISFGVPIPSSALHFGSTVKYSCVGGFFLRGNSTTLCQPDGTWSSPLPECVPVECPQPEEIPNGIIDVQGLAYLSTALYTCKPGFELVGNTTTLCGENGHWLGGKPTCKAIECLKPKEILNGKFSYTDLHYGQTVTYSCNRGFRLEGPSALTCLETGDWDVDAPSCNAIHCDSPQPIENGFVEGADYSYGAIIIYSCFPGFQVAGHAMQTCEESGWSSSIPTCMPIDCGLPPHIDFGDCTKLKDDQGYFEQEDDMMEVPYVTPHPPYHLGAVAKTWENTKESPATHSSNFLYGTMVSYTCNPGYELLGNPVLICQEDGTWNGSAPSCISIECDLPTAPENGFLRFTETSMGSAVQYSCKPGHILAGSDLRLCLENRKWSGASPRCEAISCKKPNPVMNGSIKGSNYTYLSTLYYECDPGYVLNGTERRTCQDDKNWDEDEPICIPVDCSSPPVSANGQVRGDEYTFQKEIEYTCNEGFLLEGARSRVCLANGSWSGATPDCVPVR				62.5
